± gives the uncertainty stated by the source.
B1: POU domain, class 2, transcription factor 1, residues 285 to 354; numbered along this chain, P14859 (parent)
chain: LEELEQFAKTFKQRRIKLGFTQGDVGLAMGKLYGNDFSQTTISRFEALNLSFKNMCKLKPLLEKWLNDAE

Variants of: B1
Assay: abundance fitness (aPCA) (normalised: wild type 0, dead -1); higher = more abundant; growth selection in yeast, the domain comes from the species named
Settings: Homo sapiens

Row | Variant | abundance fitness
1 | LEELEQFAKTFKQRRIKLGFTQGDVGLAMGKLYGNDFSQTTISRFEALNMSFKNMCKLKPLLEKWLNDAE [L50M] | 0.038 ± 0.046
2 | LEEVEQFAKTFKQRRIKLGFTQGDVGLAMGKLYGNDFSQTTISRFEALNLSFKNMCKLKPLLEKWLNDAE [L4V] | -0.145 ± 0.14
3 | LEELEQFAKTFKQRRIKLGFTQGDVGLAMGKLYGNDFSQTTISRFEALKLSFKNMCKLKPLLEKWLNDAE [N49K] | -0.045 ± 0.05
4 | LEELEQFAKTFKQRRIKLGFTQGDVGLAMGKLYGNDFSQTTISRFEALPLSFKNMCKLKPLLEKWLNDAE [N49P] | -0.65 ± 0.026
5 | LEELEQFAKTFKQRRIKLGFTQGDVGLAMGKLYGNDFSQTTISRFEALNLSFKNMCKLKPLEEKWLNDAE [L62E] | -0.914 ± 0.083
6 | LEELEQFAKTFKQRRIKLGFTQGEVGLAMGKLYGNDFSQTTISRFEALNLSFKNMCKLKPLLEKWLNDAE [D24E] | -0.008 ± 0.053
7 | LEELEQFAKTFKQRRIKPGFTQGDVGLAMGKLYGNDFSQTTISRFEALNLSFKNMCKLKPLLEKWLNDAE [L18P] | -0.955 ± 0.17
8 | LEELEQFAKTFKQRRIKLGFTQGDVGLAMGKLYGNDFSQTTISRFEALNLSFKNMCKLKPLLMKWLNDAE [E63M] | -0.031 ± 0.048
9 | LEELEQFAKTFKQRRIKLGFTQGDVGLAMGKLYGNDFSKTTISRFEALNLSFKNMCKLKPLLEKWLNDAE [Q39K] | 0.014 ± 0.04
10 | LEELEQFAKTFKQRRIKLGFTQGDVGLAMGKLYGNDFSQTTISRFYALNLSFKNMCKLKPLLEKWLNDAE [E46Y] | -1.02 ± 0.32
11 | LEELEQFAKTFKQRRIKLGFTQGDVGLAMGKLYGNDFSQTTISRFGALNLSFKNMCKLKPLLEKWLNDAE [E46G] | -0.929 ± 0.056
12 | LEELEQFAKTFKQRRIKLGFTQGDVMLAMGKLYGNDFSQTTISRFEALNLSFKNMCKLKPLLEKWLNDAE [G26M] | -0.04 ± 0.027
13 | LEELEQFAKTFKQRRIKLGFTQGDVTLAMGKLYGNDFSQTTISRFEALNLSFKNMCKLKPLLEKWLNDAE [G26T] | -0.038 ± 0.031
14 | LEELEQFAKTFKQVRIKLGFTQGDVGLAMGKLYGNDFSQTTISRFEALNLSFKNMCKLKPLLEKWLNDAE [R14V] | -0.004 ± 0.039
15 | LEELEQFAKTFKQQRIKLGFTQGDVGLAMGKLYGNDFSQTTISRFEALNLSFKNMCKLKPLLEKWLNDAE [R14Q] | -0.1 ± 0.075
16 | LEELEQFAKTFKQRKIKLGFTQGDVGLAMGKLYGNDFSQTTISRFEALNLSFKNMCKLKPLLEKWLNDAE [R15K] | -1.09 ± 0.11
17 | LEELEQFAKTFKQRRIKLGFTQGDVGLAMGKLYGNDFSQTTISRFEALNLSFKNICKLKPLLEKWLNDAE [M55I] | -0.086 ± 0.05
18 | LEELEQFAKTFKIRRIKLGFTQGDVGLAMGKLYGNDFSQTTISRFEALNLSFKNMCKLKPLLEKWLNDAE [Q13I] | -0.121 ± 0.07
19 | LEELEQFAKTFKTRRIKLGFTQGDVGLAMGKLYGNDFSQTTISRFEALNLSFKNMCKLKPLLEKWLNDAE [Q13T] | 0.023 ± 0.037
20 | LEELEQFAKTFKCRRIKLGFTQGDVGLAMGKLYGNDFSQTTISRFEALNLSFKNMCKLKPLLEKWLNDAE [Q13C] | -0.235 ± 0.089

Row | Variant | abundance fitness
21 | LEELEQFAKTFKQRRIKLGFTQGDVGLAMGKLYGNDFSQTTISRFEALNLSFKNMCWLKPLLEKWLNDAE [K57W] | -0.042 ± 0.032
22 | LEELEAFAKTFKQRRIKLGFTQGDVGLAMGKLYGNDFSQTTISRFEALNLSFKNMCKLKPLLEKWLNDAE [Q6A] | 0.015 ± 0.049
23 | LEELEQFAKTFKQRRIKLGFTQGDVGLAMGFLYGNDFSQTTISRFEALNLSFKNMCKLKPLLEKWLNDAE [K31F] | -0.126 ± 0.066
24 | LEELEQFAKTFKQRRIKLGFTQGDVGLAMGKRYGNDFSQTTISRFEALNLSFKNMCKLKPLLEKWLNDAE [L32R] | -0.031 ± 0.03
25 | LEELEQFAKTFKQRRIKLGFTQGDVGLAMGKNYGNDFSQTTISRFEALNLSFKNMCKLKPLLEKWLNDAE [L32N] | -0.054 ± 0.048
26 | LEELEQFAKTFKQRRIKLGFTQGDVGLAMGKLYGNDFSQTTISRFEALNLSFKNMCKLKPLLEKWCNDAE [L66C] | -0.071 ± 0.068
27 | LEELEQFAKTFKQRRIKLGFTQGDVGLAMGKLYGNDFSQTTISRFEALNLSFKDMCKLKPLLEKWLNDAE [N54D] | 0.08 ± 0.058
28 | LEELEQGAKTFKQRRIKLGFTQGDVGLAMGKLYGNDFSQTTISRFEALNLSFKNMCKLKPLLEKWLNDAE [F7G] | -0.07 ± 0.28
29 | LEELEQFAKTFKQRRIKLGFTQGDVGLAMGKLYRNDFSQTTISRFEALNLSFKNMCKLKPLLEKWLNDAE [G34R] | -0.027 ± 0.026
30 | LEELEQFAKTFKQRRIKLGFTQGDVGLAMGKLYWNDFSQTTISRFEALNLSFKNMCKLKPLLEKWLNDAE [G34W] | -0.301 ± 0.034
31 | LEELEQFAKTFKQRRIKLGFTQLDVGLAMGKLYGNDFSQTTISRFEALNLSFKNMCKLKPLLEKWLNDAE [G23L] | -0.009 ± 0.02
32 | LEELEQFAKTFKQRRIKLGFTQQDVGLAMGKLYGNDFSQTTISRFEALNLSFKNMCKLKPLLEKWLNDAE [G23Q] | -0.023 ± 0.036
33 | LEELLQFAKTFKQRRIKLGFTQGDVGLAMGKLYGNDFSQTTISRFEALNLSFKNMCKLKPLLEKWLNDAE [E5L] | -0.022 ± 0.022
34 | LEELEQFAKTFKQRRIKLGFTQGDVGLAMGKLYGNDFSQQTISRFEALNLSFKNMCKLKPLLEKWLNDAE [T40Q] | 0.016 ± 0.041
35 | LEELEQFAKTFKQRRIKLGFTQGDVGLAMGKLYGNAFSQTTISRFEALNLSFKNMCKLKPLLEKWLNDAE [D36A] | -0.049 ± 0.035
36 | LEELEQFAKGFKQRRIKLGFTQGDVGLAMGKLYGNDFSQTTISRFEALNLSFKNMCKLKPLLEKWLNDAE [T10G] | -0.047 ± 0.026
37 | LEELEQFAKKFKQRRIKLGFTQGDVGLAMGKLYGNDFSQTTISRFEALNLSFKNMCKLKPLLEKWLNDAE [T10K] | -0.014 ± 0.037
38 | LEELEQFAKDFKQRRIKLGFTQGDVGLAMGKLYGNDFSQTTISRFEALNLSFKNMCKLKPLLEKWLNDAE [T10D] | -0.08 ± 0.059
39 | LEELEQFAKSFKQRRIKLGFTQGDVGLAMGKLYGNDFSQTTISRFEALNLSFKNMCKLKPLLEKWLNDAE [T10S] | -0.027 ± 0.025
